Results: US20210206855A1 (ADAGENE, published 2021)
Substitutions are numbered along the chain they refer to.

Key:
[1] = target: T1, cynomolgus monkey CTLA4 antigen fused with human FC fragment (cynomolgus monkey, UniProt G7PL88 36-161, fused to a human Fc fragment that is not in the letters); assay: ELISA, captured Fab
T1 sequence: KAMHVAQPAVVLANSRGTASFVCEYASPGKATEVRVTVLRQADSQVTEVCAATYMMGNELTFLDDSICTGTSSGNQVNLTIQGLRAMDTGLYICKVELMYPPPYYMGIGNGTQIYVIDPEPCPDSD

[2] = target: T2, recombinant human CTLA4-Fc (Sino Biological, 11159-H03H) (human, UniProt P16410 37-162); assay: ELISA, coated human CTLA4-Fc, batch 2
T2 construct: bought; whole entry named; Biotinylated in the yeast display assays; also called human CTLA4 fused with human FC fragment; biotinylated CTLA4-Fc; not shown: human Fc fragment
T2 sequence (looked up): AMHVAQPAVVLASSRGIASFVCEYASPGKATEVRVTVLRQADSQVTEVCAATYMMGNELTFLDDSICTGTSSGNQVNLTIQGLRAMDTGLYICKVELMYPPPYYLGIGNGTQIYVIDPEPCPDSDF
Description: (§1) Plates were blocked with PBS supplemented with 3% non-fat milk at 37° C. for 1 hour. After washing, 100 μL of 3-fold serial dilutions of antibodies were added to each well. After incubation at 37° C. for 1 hour, plates were washed four times, and […] conjugated anti-human IgG (Fab specific) (1:6000 dilution) was added to each well. Plates were incubated at 37° C. for 1 hour, washed four times, and then 50 μL TMB substrate solution was added to each well, and the plate was incubated at room temperature. […] The EC₅₀ was evaluated by fitting the ELISA data using the asymmetrical sigmoidal (five-parameter logistic equation) model of GraphPad Prism 6 software.

[3] = target: T2, recombinant human CTLA4-Fc (Sino …); assay: ELISA, coated human CTLA4-Fc, batch 1
Description: as §1

[4] = target: T2, recombinant human CTLA4-Fc (Sino …); assay: ELISA, coated human CTLA4-Fc (as Example 8)
Description: as §1

[5] = target: T2, recombinant human CTLA4-Fc (Sino …); assay: ELISA, coated human CTLA4-Fc (as Example 8); remark: listed apart in the source
Description: as §1

human CD80 (recombinant) = target: T3, human CD80 (recombinant) (human, UniProt P33681 35-242, limits assumed, biotinylated where used in solution); assay: flow cytometry on yeast displaying CTLA4; Normalized FACS Bound, human WT = 1
T3 construct: also called biotinylated CD80
T3 sequence (looked up): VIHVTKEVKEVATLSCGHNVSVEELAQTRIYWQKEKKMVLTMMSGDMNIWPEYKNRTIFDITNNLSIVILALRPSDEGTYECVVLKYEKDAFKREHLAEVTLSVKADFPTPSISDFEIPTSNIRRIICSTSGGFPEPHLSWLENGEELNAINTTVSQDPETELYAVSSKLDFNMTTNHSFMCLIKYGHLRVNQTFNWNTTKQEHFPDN

mouse CD86 = target: T4, mouse CD86 (mouse, UniProt P42082 24-244, limits assumed); assay: as above
T4 sequence (looked up): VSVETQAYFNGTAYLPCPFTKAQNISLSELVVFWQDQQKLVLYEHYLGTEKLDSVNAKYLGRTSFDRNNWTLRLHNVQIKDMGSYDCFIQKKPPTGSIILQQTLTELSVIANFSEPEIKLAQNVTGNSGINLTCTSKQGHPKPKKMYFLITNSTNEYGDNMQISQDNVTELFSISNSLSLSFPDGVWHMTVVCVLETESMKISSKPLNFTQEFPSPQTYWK

[6] = target: T5, human CD86 (epitope mapping reagent) (human, UniProt P42081 24-247, limits assumed); assay: as above
T5 sequence (looked up): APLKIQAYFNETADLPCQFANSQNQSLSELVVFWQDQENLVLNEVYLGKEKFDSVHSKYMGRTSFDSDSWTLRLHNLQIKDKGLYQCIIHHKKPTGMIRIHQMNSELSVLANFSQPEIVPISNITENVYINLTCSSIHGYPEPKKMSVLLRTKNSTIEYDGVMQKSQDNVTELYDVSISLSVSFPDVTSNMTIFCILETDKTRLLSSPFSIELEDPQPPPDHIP

[7] = target: T2, recombinant human CTLA4-Fc (Sino …); assay: ELISA, coated human CTLA4-Fc
Description: (§2) The ability of certain IgG antibodies to bind to soluble human (FIG. 1A, Table 5A) or canine (FIG. 1B, Table 5B) CTLA4 was next tested. 1 μg/mL human CTLA4 fused with human FC fragment, or canine CTLA4 fused with His tag, were prepared and used to coat an ELISA plate at 2-8° C. overnight. After blocking, 100 μL serial diluted IgG antibodies were added and incubated at 37° C. for 1 hour. Plates were washed for four times and then incubated with HRP-anti human IgG (Fab specific) (1:6000 dilution) at 37° C. for 1 hour. Plates were washed again four times and incubated with TMB substrate for 15 minutes at room temperature. […] The data was analyzed by Graphpad Prism 6 with nonlinear fitting.

[8] = target: T6, canine CTLA4 fused with His tag (canine, UniProt Q9XSI1 36-162, limits assumed); assay: ELISA, coated canine CTLA4-His
T6 construct: soluble protein; also called dog CTLA4; not shown: His tag
T6 sequence (looked up): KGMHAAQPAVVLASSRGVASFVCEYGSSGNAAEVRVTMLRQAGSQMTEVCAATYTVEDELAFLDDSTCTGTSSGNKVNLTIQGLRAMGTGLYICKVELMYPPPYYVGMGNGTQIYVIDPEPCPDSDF
Description: as §2

[9] = target: T7, recombinant human CTLA4 fused with human Fc and His tag (human, UniProt P16410 37-162, limits assumed, biotinylated where used in solution); assay: competition ELISA: plate-bound human CTLA4-Fc-His, biotinylated human CD80 as the blocked ligand, HRP-neutravidin
T7 construct: also called biotinylated human CTLA4 fused with human FC and His tag; recombinant human CTLA4 proteins; not shown: human Fc and His tag
T7 sequence (looked up): T2 sequence (looked up)
Description: Plates were blocked with PBS supplemented with 2% (w/v) skim milk at 37° C. for 1 hour. […] Plates were washed four times, and 100 μL HRP-neutravidin (1:1000) was added to each well and incubated at 37° C. for 1 hour. Plates were washed as previously described, and 50 μL TMB substrate solution was added and incubated at room temperature for 5 minutes before the reaction was stopped by 50 μL sulfate acid (2M).

B1: B15722 (Fab, V domains shown)
VH: EVQLVESGGGLVQPGGSLRLSCAASGFTFSDYGIHWVRQAPGKGLEWIGEIYHSGSTYYSPSLKSRVTISRDNSKNTLYLQLNSLRAEDTAVYYCARDVAPGSSGYYDGFDFWGQGTLVTVSS
VL: DIQLTQSPSSLSASVGDRVTITCRASQGIGSSLAWYQQKPGKAPKLLIYDASNRATGIPSRFSGSGSGTDFTLTISSLQPEDFATYYCQQYDQWPPWTFGQGTKVEIKR
notes: Fab hit from E. coli
[1]
  binding result: binds

B2: TY22566 (antibody, IgG1, V domains shown)
VH: EVQLVESGGGLVQPGGSLRLSCAASGYSISSGYHWSWIRQAPGKGLEWLARIDWDDDKYYSTSLKSRLTISRDNSKNTLYLQLNSLRAEDTAVYYCARSYVYFDYWGQGTLVTVSS
VL: EVGSYPNPASDCVPYYYACAYSGRSAGGGGSPLGLAGSGGSDIQLTQSPSSLSASVGDRVTITCRASQSVRGRFLAWYQQKPGKAPKLLIYDASNRATGIPSRFSGSGSGTDFTLTISSLQPEDFATYYCQQSSSWPPTFGQGTKVEIKR
[2]
  EC50: 163 nM
  LogEC50: -6.79 log M

B3: TY22563 (antibody, IgG1, V domains shown)
VH: B2 VH
VL: EVGSYYSAYPACDSHYPYCQSSGRSAGGGGSPLGLAGSGGSDIQLTQSPSSLSASVGDRVTITCRASQSVRGRFLAWYQQKPGKAPKLLIYDASNRATGIPSRFSGSGSGTDFTLTISSLQPEDFATYYCQQSSSWPPTFGQGTKVEIKR
[2]
  EC50: 47.7 nM
  LogEC50: -7.32 log M

B4: TY22564 (antibody, IgG1, V domains shown)
VH: B2 VH
VL: B3 VL with Q20N, S22A
[2]
  EC50: 39 nM
  LogEC50: -7.41 log M

B5: TY22401 (antibody, V domains shown)
VH: B2 VH
VL: EVGSYNFVADSCPDHPYPCSASGRSAGGGGSPLGLAGSGGSDIQLTQSPSSLSASVGDRVTITCRASQSVRGRFLAWYQQKPGKAPKLLIYDASNRATGIPSRFSGSGSGTDFTLTISSLQPEDFATYYCQQSSSWPPTFGQGTKVEIKR
notes: peptide fused to the N-terminus of the light chain; also called masking peptide B13189
[3]
  EC50: 23.8 nM
  LogEC50: -7.62 log M
[2]
  EC50: 15.9 nM
  LogEC50: -7.8 log M

B6: TY22402 (peptide as listed in Table 26) (antibody, V domains shown)
VH: B2 VH
VL: B3 VL with Y6I, S7V, A8H, Y9H, P10S, A11D, S14A, H15F, Q20D, S31T
notes: kept apart from m66
[4]
  EC50: 116 nM
[5]
  EC50: 54 nM

B7: TY22565 (antibody, IgG1, V domains shown)
VH: B2 VH
VL: B2 VL with N7Q, A9S
[2]
  EC50: 210 nM
  LogEC50: -6.68 log M

B8: TY22402 (antibody, IgG1, V domains shown)
VH: B2 VH
VL: B3 VL with Y6I, S7V, A8H, Y9H, P10S, A11D, S14A, H15F, Q20D
notes: also called masking peptide B13180
[3]
  EC50: 478 nM
  LogEC50: -6.32 log M
[2]
  EC50: 125 nM
  LogEC50: -6.9 log M

B9: human CTLA4 mutant YLGIG105FVGMG displayed on yeast (receptor)
chain: KAMHVAQPAVVLASSRGIASFVCEYASPGKATEVRVTVLRQADSQVTEVCAATYMMGNELTFLDDSICTGTSSGNQVNLTIQGLRAMDTGLYICKVELMYPPPYFVGMGNGTQIYVIDPE
notes: also called G strand changed to mouse
Human CD80 (recombinant)
  binding result: binds
Mouse CD86
  binding result: binds
[6]
  binding result: binds

B10: TY21591 (antibody, V domains shown)
VH: EVQLVESGGGLVQPGGSLRLSCAASGFSLSTGGVAVSWIRQAPGKGLEWIGEIYHSGSTYYSPSLKSRVTISRDNSKNTLYLQLNSLRAEDTAVYYCARRIATATYFDYWGQGTLVTVSS
VL: DIQLTQSPSSLSASVGDRVTITCRASQTVFSRYLAWYQQKPGKAPKLLIYDASNRATGIPSRFSGSGSGTDFTLTISSLQPEDFATYYCQQSYYWPPWTFGQGTKVEIK
[7]
  LogEC50: -9.08 log M
[8]
  LogEC50: -9.15 log M

B11: TY21687 (antibody, V domains shown)
VH: EVQLVESGGGLVQPGGSLRLSCAASGFTFSGYAIHWVRQAPGKGLEWIGIISPSGGGTKYAQKFQGRVTISRDNSKNTLYLQLNSLRAEDTAVYYCARHPFAYWGQGTLVTVSS
VL: DIQLTQSPSSLSASVGDRVTITCRASQSVDFYGISFLDWYQQKPGKAPKLLIYDASNRATGIPSRFSGSGSGTDFTLTISSLQPEDFATYYCQQYVSSPPEYTFGQGTKVEIK
[9]
  IC50 (read off the curve): ~40 nM
[7]
  LogEC50: -9.49 log M
[8]
  LogEC50: -9.13 log M

B12: TY21585 (antibody, V domains shown)
VH: EVQLVESGGGLVQPGGSLRLSCAASGFTFSDYAIHWVRQAPGKGLEWIGIISPSSGSTNYAQKFQGRVTISRDNSKNTLYLQLNSLRAEDTAVYYCARDIHSGSSGYYYGFDVWGQGTLVTVSS
VL: B11 VL with Q27E, Y32F, D38A, Q94H, V96T, E101V
[9]
  IC50 (read off the curve): ~20 nM
[7]
  LogEC50: -9.26 log M
[8]
  LogEC50: -8.22 log M

B13: B15740 (Fab, V domains shown)
VH: EVQLVESGGGLVQPGGSLRLSCAASGFTFSDYWIHWVRQAPGKGLEWIGWISPSGGGTKYAQKFQGRVTISRDNSKNTLYLQLNSLRAEDTAVYYCARGAYEFDYWGQGTLVTVSS
VL: DIQLTQSPSSLSASVGDRVTITCRASQSVSSRFLAWYQQKPGKAPKLLIYDASNRATGIPSRFSGSGSGTDFTLTISSLQPEDFATYYCQQSYPTPLTFGQGTKVEIKR
notes: Fab hit from E. coli
[1]
  binding result: binds
